Source: the supplement of paper PMC5998384

Experiments:
HeLa Kyoto [1] = experiment: solubility in G1/S (NP-40 vs SDS abundance) (log2 ratio); higher = more soluble; settings: cell cycle stage: G1/S
HeLa Kyoto [2] = experiment: thermal stability score vs G1/S (z-score of summed log2 fold changes over temperatures); higher = more thermally stable than in G1/S
HeLa Kyoto [3] = experiment: melting temperature (median over replicates), in situ; higher = more thermally stable
HeLa Kyoto [4] = experiment: solubility change mitosis vs G1/S (difference of NP-40 vs SDS log2 ratios) (log2 ratio difference); higher = more soluble in mitosis
[5] = cell cycle stage: early G1 (4.5 h after nocodazole release)
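Throughout, for melting temperature (median over replicates), in situ: HeLa Kyoto cells synchronized by double thymidine or nocodazole block, proteins quantified by TMT10plex mass spectrometry, three independent biological replicates.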
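Throughout, for solubility change mitosis vs G1/S (difference of NP-40 vs SDS log2 ratios): synchronized HeLa Kyoto cells (double thymidine block for G1/S, nocodazole release for mitosis), protein amounts in NP-40 versus SDS lysates quantified by mass spectrometry, three biological replicates.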
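Throughout, for solubility in G1/S (NP-40 vs SDS abundance): HeLa Kyoto cells arrested at G1/S by double thymidine block, proteins quantified by TMT10plex mass spectrometry in mild NP-40 versus SDS extracts, three biological replicates.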
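Throughout, for thermal stability score vs G1/S (z-score of summed log2 fold changes over temperatures): synchronized HeLa Kyoto cells, proteins quantified by TMT10plex mass spectrometry, three biological replicates, mitosis taken 0.5 h after nocodazole release, G1/S directly after double thymidine block.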

**Q.** For “MATFISVQLKKTSEVDLAKPLVKFIQQTYPSGGEEQAQYCRAAEELSKLRRAAVGRPLDKHEGALETLLRYYDQICSIEPKFPFSENQICLTFTWKDAFDKGSLFGGSVKLALASLGYEKSCVLFNCAALASQIAAEQNLDNDEGLKIAAKHYQFASGAFLHIKETVLSALSREPTVDISPDTVGTLSLIMLAQAQEVFFLKATRDKMKDAIIAKLANQAADYFGDAFKQCQYKDTLPKEVFPVLAAKHCIMQANAEYHQSILAKQQKKFGEEIARLQHAAELIKTVASRYDEYVNVKDFSDKINRALAAAKKDNDFIYHDRVPDLKDLDPIGKATLVKSTPVNVPISQKFTDLFEKMVPVSVQQSLAAYNQRKADLVNRSIAQMREATTLANGVLASLNLPAAIEDVSGDTVPQSILTKSRSVIEQGGIQTVDQLIKELPELLQRNREILDESLRLLDEEEATDNDLRAKFKERWQRTPSNELYKPLRAEGTNFRTVLDKAVQADGQVKECYQSHRDTIVLLCKPEPELNAAIPSANPAKTMQGSEVVNVLKSLLSNLDEVKKEREGLENDLKSVNFDMTSKFLTALAQDGVINEEALSVTELDRVYGGLTTKVQESLKKQEGLLKNIQVSHQEFSKMKQSNNEANLREEVLKNLATAYDNFVELVANLKEGTKFYNELTEILVRFQNKCSDIVFARKTERDELLKDLQQSIAREPSAPSIPTPAYQSSPAGGHAPTPPTPAPRTMPPTKPQPPARPPPPVLPANRAPSATAPSPVGAGTAAPAPSQTPGSAPPPQAQGPPYPTYPGYPGYCQMPMPMGYNPYAYGQYNMPYPPVYHQSPGQAPYPGPQQPSYPFPQPPQQSYYPQQ [PDCD6IP]”, which “solubility in G1/S (log2)” value (HeLa Kyoto [1]) is on record?
**A.** 0.366

**Q.** What about the thermal stability score (HeLa Kyoto [2]; [5]) of the same sequence?
**A.** -2.03

**Q.** And the thermal stability score (HeLa Kyoto [2]; cell cycle stage: mitosis)?
**A.** -1.7

**Q.** What about the melting temperature (HeLa Kyoto [3]; cell cycle stage: G1/S) of the same sequence?
**A.** 48.7 °C

**Q.** And the melting temperature (HeLa Kyoto [3]; cell cycle stage: mitosis)?
**A.** 48.6 °C

**Q.** And the “solubility change mitosis (log2)” value (HeLa Kyoto [4])?
**A.** -0.0427

**Q.** For “MFRGLSSWLGLQQPVAGGGQPNGDAPPEQPSETVAESAEEELQQAGDQELLHQAKDFGNYLFNFASAATKKITESVAETAQTIKKSVEEGKIDGIIDKTIIGDFQKEQKKFVEEQHTKKSEAAVPPWVDTNDEETIQQQILALSADKRNFLRDPPAGVQFNFDFDQMYPVALVMLQEDELLSKMRFALVPKLVKEEVFWRNYFYRVSLIKQSAQLTALAAQQQAAGKEEKSNGREQDLPLAEAVRPKTPPVVIKSQLKTQEDEEEISTSPGVSEFVSDAFDACNLNQEDLRKEMEQLVLDKKQEETAVLEEDSADWEKELQQELQEYEVVTESEKRDENWDKEIEKMLQEEN [SYAP1]”, which “solubility in G1/S (log2)” value (HeLa Kyoto [1]) is on record?
**A.** 0.391

**Q.** And the thermal stability score (HeLa Kyoto [2]; [5])?
**A.** -0.579

**Q.** What about the thermal stability score (HeLa Kyoto [2]; cell cycle stage: mitosis) of the same sequence?
**A.** -1.49

**Q.** And the melting temperature (HeLa Kyoto [3]; cell cycle stage: G1/S)?
**A.** 53.2 °C

**Q.** And the melting temperature (HeLa Kyoto [3]; cell cycle stage: mitosis)?
**A.** 53.5 °C

**Q.** What about the “solubility change mitosis (log2)” value (HeLa Kyoto [4]) of the same sequence?
**A.** 0.264

**Q.** With “MLTKFETKSARVKGLSFHPKRPWILTSLHNGVIQLWDYRMCTLIDKFDEHDGPVRGIDFHKQQPLFVSGGDDYKIKVWNYKLRRCLFTLLGHLDYIRTTFFHHEYPWILSASDDQTIRVWNWQSRTCVCVLTGHNHYVMCAQFHPTEDLVVSASLDQTVRVWDISGLRKKNLSPGAVESDVRGITGVDLFGTTDAVVKHVLEGHDRGVNWAAFHPTMPLIVSGADDRQVKIWRMNESKAWEVDTCRGHYNNVSCAVFHPRQELILSNSEDKSIRVWDMSKRTGVQTFRRDHDRFWVLAAHPNLNLFAAGHDGGMIVFKLERERPAYAVHGNMLHYVKDRFLRQLDFNSSKDVAVMQLRSGSKFPVFNMSYNPAENAVLLCTRASNLENSTYDLYTIPKDADSQNPDAPEGKRSSGLTAVWVARNRFAVLDRMHSLLIKNLKNEITKKVQVPNCDEIFYAGTGNLLLRDADSITLFDVQQKRTLASVKISKVKYVIWSADMSHVALLAKHAIVICNRKLDALCNIHENIRVKSGAWDESGVFIYTTSNHIKYAVTTGDHGIIRTLDLPIYVTRVKGNNVYCLDRECRPRVLTIDPTEFKFKLALINRKYDEVLHMVRNAKLVGQSIIAYLQKKGYPEVALHFVKDEKTRFSLALECGNIEIALEAAKALDDKNCWEKLGEVALLQGNHQIVEMCYQRTKNFDKLSFLYLITGNLEKLRKMMKIAEIRKDMSGHYQNALYLGDVSERVRILKNCGQKSLAYLTAATHGLDEEAESLKETFDPEKETIPDIDPNAKLLQPPAPIMPLDTNWPLLTVSKGFFEGTIASKGKGGALAADIDIDTVGTEGWGEDAELQLDEDGFVEATEGLGDDALGKGQEEGGGWDVEEDLELPPELDISPGAAGGAEDGFFVPPTKGTSPTQIWCNNSQLPVDHILAGSFETAMRLLHDQVGVIQFGPYKQLFLQTYARGRTTYQALPCLPSMYGYPNRNWKDAGLKNGVPAVGLKLNDLIQRLQLCYQLTTVGKFEEAVEKFRSILLSVPLLVVDNKQEIAEAQQLITICREYIVGLSVETERKKLPKETLEQQKRICEMAAYFTHSNLQPVHMILVLRTALNLFFKLKNFKTAATFARRLLELGPKPEVAQQTRKILSACEKNPTDAYQLNYDMHNPFDICAASYRPIYRGKPVEKCPLSGACYSPEFKGQICRVTTVTEIGKDVIGLRISPLQFR [COPA]” as the sequence, how does the “solubility in G1/S (log2)” value (HeLa Kyoto [1]) read?
**A.** -0.365

**Q.** And the thermal stability score (HeLa Kyoto [2]; [5])?
**A.** -0.819

**Q.** And the thermal stability score (HeLa Kyoto [2]; cell cycle stage: mitosis)?
**A.** -0.346

**Q.** What about the melting temperature (HeLa Kyoto [3]; cell cycle stage: G1/S) of the same sequence?
**A.** 51 °C

**Q.** What about the melting temperature (HeLa Kyoto [3]; cell cycle stage: mitosis) of the same sequence?
**A.** 50.3 °C

**Q.** What about the “solubility change mitosis (log2)” value (HeLa Kyoto [4]) of the same sequence?
**A.** -0.16

**Q.** What does the source list for “MLRAGWLRGAAALALLLAARVVAAFEPITVGLAIGAASAITGYLSYNDIYCRFAECCREERPLNASALKLDLEEKLFGQHLATEVIFKALTGFRNNKNPKKPLTLSLHGWAGTGKNFVSQIVAENLHPKGLKSNFVHLFVSTLHFPHEQKIKLYQDQLQKWIRGNVSACANSVFIFDEMDKLHPGIIDAIKPFLDYYEQVDGVSYRKAIFIFLSNAGGDLITKTALDFWRAGRKREDIQLKDLEPVLSVGVFNNKHSGLWHSGLIDKNLIDYFIPFLPLEYRHVKMCVRAEMRARGSAIDEDIVTRVAEEMTFFPRDEKIYSDKGCKTVQSRLDFH [TOR1B]”?
**A.** solubility in G1/S (log2) (HeLa Kyoto [1]): 0.349; thermal stability score (HeLa Kyoto [2]; [5]): 2.27; thermal stability score (HeLa Kyoto [2]; cell cycle stage: mitosis): 5.78; melting temperature (HeLa Kyoto [3]; cell cycle stage: G1/S): 53.7 °C; melting temperature (HeLa Kyoto [3]; cell cycle stage: mitosis): 53.9 °C; solubility change mitosis (log2) (HeLa Kyoto [4]): -0.143

**Q.** What does the source list for “MATDSWALAVDEQEAAVKSMTNLQIKEEKVKADTNGIIKTSTTAEKTDEEEKEDRAAQSLLNKLIRSNLVDNTNQVEVLQRDPNSPLYSVKSFEELRLKPQLLQGVYAMGFNRPSKIQENALPMMLAEPPQNLIAQSQSGTGKTAAFVLAMLSRVEPSDRYPQCLCLSPTYELALQTGKVIEQMGKFYPELKLAYAVRGNKLERGQKISEQIVIGTPGTVLDWCSKLKFIDPKKIKVFVLDEADVMIATQGHQDQSIRIQRMLPRNCQMLLFSATFEDSVWKFAQKVVPDPNVIKLKREEETLDTIKQYYVLCSSRDEKFQALCNLYGAITIAQAMIFCHTRKTASWLAAELSKEGHQVALLSGEMMVEQRAAVIERFREGKEKVLVTTNVCARGIDVEQVSVVINFDLPVDKDGNPDNETYLHRIGRTGRFGKRGLAVNMVDSKHSMNILNRIQEHFNKKIERLDTDDLDEIEKIAN [DDX19A]”?
**A.** solubility in G1/S (log2) (HeLa Kyoto [1]): 0.212; thermal stability score (HeLa Kyoto [2]; [5]): 1.53; thermal stability score (HeLa Kyoto [2]; cell cycle stage: mitosis): 0.923; melting temperature (HeLa Kyoto [3]; cell cycle stage: G1/S): 49.9 °C; melting temperature (HeLa Kyoto [3]; cell cycle stage: mitosis): 49.9 °C; solubility change mitosis (log2) (HeLa Kyoto [4]): -0.05
